The source of these data is patent US20230287402A1 (University of Washington, published 2023).

The target in this assay is T1, Di13_B2L2B4, cyclic pseudo-dihedral B component (construct number 2 of Table 3).
T1 construct: also called cyclic B
Description: negative stain TEM, unlabelled construct.

B1: A component of design #13 (D3 homooligomer, designed from 1d2t) (designed binder)
chain: MGHHHHHHGGLALVATGNDTTTKPDLYYLKNSEAINSLALLPPPPAVGSIAFLNDQAMYEQGRLLRNTERGKLAAEDANLSSGGVANAFSGAFGSPITEKDAPALHKLLTNMIEDAGDLATRSAKDHYMRIRPFAFYGVSTCNTTEQDKLSKNGSYPSGHTSIGWATALVLAEINPQRQNEILKRGYELGQSRVICGYHWQSDVDAARVVGSAVVATLHTNPEFQAQLIKAKIEFKQHQKEL
notes: also called component A; dihedral A
For B1, the binding result is “binds”.
